Assay results taken from US20060084593A1.

Target: gp120/CD4 complex (human immunodeficiency virus (HIV), hxbc2) (UniProt P04578)
Experiment: SPR (Biacore); 48d immobilized; gp120 50 nM, CD4 250 nM, heparin dp16 at 125 nM (0.6 µg/ml) as inhibitor

antibody 48d specific for the CD4i epitope
% inhibition of the interaction by heparin dp16 (125 nM): 90 to 100%
